{"source": "paper PMC8805024", "target": "Acinetobacter baumannii AdeJ multidrug efflux pump (Acinetobacter baumannii AB0057)", "experiment": "cryo-EM structure; single-particle cryo-EM of 10 uM AdeJ-nanodisc (MSP 1E3D1, E. coli total lipid extract) incubated with 20 uM TP-6076 for 1 h; 2.91 Å; asymmetric trimer of access, binding and extrusion protomers", "data": [{"substance": "Acinetobacter baumannii AdeJ multidrug efflux pump (natural protein)", "values": [{"measurement": "stoichiometry N", "value": 3}]}]}
